We go through 70 substances from patent US20170002055A1, “Novel peptides and combination of peptides for use in immunotherapy against ovarian cancer and other cancers” (immatics biotechnologies GmbH, priority 2015, published 2017).

The target of this test is HLA-A*02:01 (Homo sapiens, UniProt P04439, D140Y/D185E/D98H/E176V/E277Q/G131W/G231S/I119V/I121R/I166T/I218V/L300P/L318F/N151K/N90K/P208A/P217A/Q86G/Q94H/R138H/R169H/T345S). The test can be described thus: MHC binding assay (UV-ligand exchange, β2m ELISA, peptide exchange yield). The settings on record: MHC class I binding score; binding to HLA-A*02:01 ranged by peptide exchange yield (UV-ligand exchange, β2m ELISA). An outline of the steps:
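Binding is expressed as peptide exchange yield: stabilized MHC complexes were quantified by β2m ELISA, with a 450 nm TMB read-out on streptavidin-coated plates. Complexes came from UV-ligand exchange, where UV irradiation cleaves a photolabile peptide so the candidate peptide can load.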
Take “379 (IMEGTLTRV; listed as Homo sapiens) [compound 379]”: the Peptide exchange entry is given as ““++” (≧20% = ++)”.
For “380 (TLIEDEIATI; listed as Homo sapiens) [compound 380]” the value was ““++” (≧20% = ++)”; for “381 (FIDEAYVEV; listed as Homo sapiens) [compound 381]”, ““++” (≧20% = ++)”; for “382 (ALQNYIKEA; listed as Homo sapiens) [compound 382]”, ““++” (≧20% = ++)”.
For “383 (ALLELENSVTL; listed as Homo sapiens) [compound 383]” the value was ““+++” (≧50 = +++)”.
Regarding “385 (SLLEQGLVEA; listed as Homo sapiens) [compound 385]”, the Peptide exchange result is ““++” (≧20% = ++)”.
For “386 (ILFRYPLTI; listed as Homo sapiens) [compound 386]” the value was ““+++” (≧50 = +++)”; for “387 (ALFQATAEV; listed as Homo sapiens) [compound 387]”, ““++++” (≧75% = ++++)”.
In the case of “388 (SLTIDGIRYV; listed as Homo sapiens) [compound 388]”, the Peptide exchange entry is ““+++” (≧50 = +++)”.
For “389 (LLADVTHLL; listed as Homo sapiens) [compound 389]” the value was ““++” (≧20% = ++)”; for “390 (ALFMKQIYL; listed as Homo sapiens) [compound 390]”, ““+++” (≧50 = +++)”.
For “391 (YVYPQRLNFV; listed as Homo sapiens) [compound 391]” the value was ““+++” (≧50 = +++)”.
Turning to “392 (ALLHPQGFEV; listed as Homo sapiens) [compound 392]”, the Peptide exchange result was ““++” (≧20% = ++)”.
For “393 (GLLDTQTSQVLTA; listed as Homo sapiens) [compound 393]” the value was ““++” (≧20% = ++)”; for “394 (LLAVIGGLVYL; listed as Homo sapiens) [compound 394]”, ““+++” (≧50 = +++)”; for “396 (ALLPDLPAL; listed as Homo sapiens) [compound 396]”, ““+++” (≧50 = +++)”.
For “397 (YLFGERLLEC; listed as Homo sapiens) [compound 397]” the value was ““+++” (≧50 = +++)”.
With “398 (KLLEEDGTIITL; listed as Homo sapiens) [compound 398]”, the Peptide exchange result was ““++” (≧20% = ++)”.
For “399 (YLFEPLYHV; listed as Homo sapiens) [compound 399]” the value was ““+++” (≧50 = +++)”.
For “400 (SLLTEQDLWTV; listed as Homo sapiens) [compound 400]” the value was ““++” (≧20% = ++)”; for “401 (ILLDDTGLAYI; listed as Homo sapiens) [compound 401]”, ““+++” (≧50 = +++)”.
For “402 (VLFSGALLGL; listed as Homo sapiens) [compound 402]” the value was ““++” (≧20% = ++)”; for “403 (KLYDRILRV; listed as Homo sapiens) [compound 403]”, ““++” (≧20% = ++)”; for “405 (ALYDVFLEV; listed as Homo sapiens) [compound 405]”, ““++” (≧20% = ++)”.
In the case of “407 (YLMDLINFL; listed as Homo sapiens) [compound 407]”, the Peptide exchange entry was ““+++” (≧50 = +++)”.
For “408 (VLDDSIYLV; listed as Homo sapiens) [compound 408]” the value was ““++” (≧20% = ++)”.
For “409 (LLDAMNYHL; listed as Homo sapiens) [compound 409]” the value was ““++” (≧20% = ++)”; for “412 (YLDDLNEGVYI; listed as Homo sapiens) [compound 412]”, ““++” (≧20% = ++)”.
For “426 (RLADKSVLV; listed as Homo sapiens) [compound 426]” the value was ““+++” (≧50 = +++)”; for “427 (ALLPLSPYL; listed as Homo sapiens) [compound 427]”, ““+++” (≧50 = +++)”.
On to “428 (KLGHTDILVGV; listed as Homo sapiens) [compound 428]”, for which the Peptide exchange result is ““++” (≧20% = ++)”.
For “429 (GLVNDLARV; listed as Homo sapiens) [compound 429]” the value was ““++” (≧20% = ++)”.
For “430 (HLYSSIEHLTT; listed as Homo sapiens) [compound 430]” the value was ““+++” (≧50 = +++)”.
For “431 (SLVNVVPKL; listed as Homo sapiens) [compound 431]” the value was ““++” (≧20% = ++)”; for “432 (TLIEESAKV; listed as Homo sapiens) [compound 432]”, ““++” (≧20% = ++)”.
Take “433 (AMLNEPWAV; listed as Homo sapiens) [compound 433]”: the Peptide exchange entry is given as ““+++” (≧50 = +++)”.
“434 (KVSNSGITRV; listed as Homo sapiens) [compound 434]”: the Peptide exchange entry is recorded as ““++” (≧20% = ++)”.
Regarding “436 (HLAEVSAEV; listed as Homo sapiens) [compound 436]”, the Peptide exchange result was ““+++” (≧50 = +++)”.
For “437 (SMAPGLVIQAV; listed as Homo sapiens) [compound 437]” the value was ““+++” (≧50 = +++)”; for “438 (KLLPLAGLYL; listed as Homo sapiens) [compound 438]”, ““++++” (≧75% = ++++)”; for “439 (YLLQEIYGI; listed as Homo sapiens) [compound 439]”, ““+++” (≧50 = +++)”.
For “440 (ALADGVTMQV; listed as Homo sapiens) [compound 440]” the value was ““++” (≧20% = ++)”; for “441 (ALLENPKMEL; listed as Homo sapiens) [compound 441]”, ““+++” (≧50 = +++)”.
For “442 (GLLGGGGVLGV; listed as Homo sapiens) [compound 442]” the value was ““+++” (≧50 = +++)”.
“444 (GLLRDEALAEV; listed as Homo sapiens) [compound 444]”: the Peptide exchange entry is on record as ““+++” (≧50 = +++)”.
Turning to “447 (QLVPALAKV; listed as Homo sapiens) [compound 447]”, the Peptide exchange result is given as ““++” (≧20% = ++)”.
For “448 (NLLETKLQL; listed as Homo sapiens) [compound 448]” the value was ““+++” (≧50 = +++)”; for “449 (KLAEGLDIQL; listed as Homo sapiens) [compound 449]”, ““+++” (≧50 = +++)”; for “450 (FMIDASVHPTL; listed as Homo sapiens) [compound 450]”, ““+++” (≧50 = +++)”.
For “451 (LLLLDTVTMQV; listed as Homo sapiens) [compound 451]” the value was ““++” (≧20% = ++)”.
For “452 (ILLEHGADPNL; listed as Homo sapiens) [compound 452]” the value was ““+++” (≧50 = +++)”.
In the case of “453 (KLLEATSAV; listed as Homo sapiens) [compound 453]”, the Peptide exchange result was ““++” (≧20% = ++)”.
For “455 (SLLKEPQKVQL; listed as Homo sapiens) [compound 455]” the value was ““++” (≧20% = ++)”.
For “456 (LLIGHLERV; listed as Homo sapiens) [compound 456]” the value was ““+++” (≧50 = +++)”.
For “457 (SLLPGNLVEKV; listed as Homo sapiens) [compound 457]” the value was ““+++” (≧50 = +++)”; for “458 (SLIDKLYNI; listed as Homo sapiens) [compound 458]”, ““++” (≧20% = ++)”.
For the substance “459 (ALITEVVRL; listed as Homo sapiens) [compound 459]”, the Peptide exchange entry is recorded as ““++” (≧20% = ++)”.
In the case of “461 (VMFRTPLASV; listed as Homo sapiens) [compound 461]”, the Peptide exchange entry was ““++” (≧20% = ++)”.
Turning to “462 (KLAKQPETV; listed as Homo sapiens) [compound 462]”, the Peptide exchange entry is recorded as ““+++” (≧50 = +++)”.
Take “464 (ALNDCIYSV; listed as Homo sapiens) [compound 464]”: the Peptide exchange result is ““+++” (≧50 = +++)”.
For “465 (QLCDLNAEL; listed as Homo sapiens) [compound 465]” the value was ““+++” (≧50 = +++)”; for “466 (VLIANLEKL; listed as Homo sapiens) [compound 466]”, ““++++” (≧75% = ++++)”; for “467 (FLAKDFNFL; listed as Homo sapiens) [compound 467]”, ““+++” (≧50 = +++)”.
“468 (YLRSVGDGETV; listed as Homo sapiens) [compound 468]”: the Peptide exchange result is ““+++” (≧50 = +++)”.
Take “469 (YLASDEITTV; listed as Homo sapiens) [compound 469]”: the Peptide exchange result is reported as ““+++” (≧50 = +++)”.
With “471 (YLYNNMIAKI; listed as Homo sapiens) [compound 471]”, the Peptide exchange entry was ““+++” (≧50 = +++)”.
For “472 (KLLEVSDDPQV; listed as Homo sapiens) [compound 472]” the value was ““+++” (≧50 = +++)”; for “473 (AMATESILHFA; listed as Homo sapiens) [compound 473]”, ““+++” (≧50 = +++)”.
Take “474 (YLDPALELGPRNV; listed as Homo sapiens) [compound 474]”: the Peptide exchange result is ““+++” (≧50 = +++)”.
For “475 (LLLNEEALAQI; listed as Homo sapiens) [compound 475]” the value was ““+++” (≧50 = +++)”.
